# Values of other authors, collected in paper PMC8531642.
# Legend:
# Cytochrome c = Cytochrome c (UniProt P99999)
# LRG1 (Homo sapiens) = LRG1 (Homo sapiens) (UniProt P02750); experiment: SPR
# Chain of UniProt P02750 (P02750 36-347): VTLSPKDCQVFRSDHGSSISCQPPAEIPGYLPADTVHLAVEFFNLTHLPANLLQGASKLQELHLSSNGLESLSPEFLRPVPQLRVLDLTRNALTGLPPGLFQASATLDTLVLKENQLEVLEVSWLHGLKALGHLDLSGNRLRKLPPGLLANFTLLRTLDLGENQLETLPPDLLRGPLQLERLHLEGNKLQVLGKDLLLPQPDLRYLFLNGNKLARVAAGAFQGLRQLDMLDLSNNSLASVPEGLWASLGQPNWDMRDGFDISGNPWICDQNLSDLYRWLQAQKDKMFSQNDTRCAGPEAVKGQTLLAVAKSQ
# Chain of Cytochrome c (P99999 2-105): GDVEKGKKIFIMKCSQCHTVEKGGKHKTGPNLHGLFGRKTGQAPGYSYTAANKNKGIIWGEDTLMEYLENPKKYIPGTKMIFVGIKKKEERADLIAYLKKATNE
Substance,Kd (Cytochrome c) [nM],Kd (LRG1 (Homo sapiens)) [nM]
Apaf-1 (from UniProt O14727),500,–
Cytochrome c (from UniProt P99999),–,0.000158
TGF-β1 (from UniProt P01137),–,2320
